# Data as given in US20220177587A1, “METHODS AND USES OF VARIANT CD80 FUSION PROTEINS AND RELATED CONSTRUCTS” (Alpine Immune Sciences, Inc., priority 2018, published 2022).
# Positions count from the first letter of the chain named. In names and notes the source's numbering stands.
# B1: L70Q/A91G/N144D (protein)
# chain: VIHVTKEVKEVATLSCGHNVSVEELAQTRIYWQKEKKMVLTMMSGDMNIWPEYKNRTIFDITNNLSIVIQALRPSDEGTYECVVLKYEKDGFKREHLAEVTLSVKADFPTPSISDFEIPTSNIRRIICSTSGGFPEPHLSWLEDGEELNAINTTVSQDPETELYAVSSKLDFNMTTNHSFMCLIKYGHLRVNQTFNWNTTKQEHFPDN
# modifications: CD80 v122 ECD
# B2: L70Q/A91G/T130A (protein)
# chain: B1 chain with T130A, D144N
# modifications: CD80 v2 ECD
# B3: L70Q/A91G/I118A/T120S/T130A/K169E (protein)
# chain: B1 chain with I118A, T120S, T130A, D144N, K169E
# modifications: CD80 v123 ECD
# B4: V20L/L70Q/A91S/I118V/T120S/T130A (protein)
# chain: B1 chain with V20L, I118V, T120S, T130A, D144N
# modifications: CD80 v127 ECD
# B5: V4M/L70Q/A91G/I118V/T120S/T130A/K169E (protein)
# chain: B1 chain with V4M, I118V, T120S, T130A, D144N, K169E
# modifications: CD80 v124 ECD
# B6: L70Q/A91G/I118V/T120S/T130A/K169E (protein)
# chain: B1 chain with I118V, T120S, T130A, D144N, K169E
# modifications: CD80 v125 ECD
# B7: E35D/M47I: variant CD80 IgV-Fc, IgV SEQ ID NO:177 (protein)
# chain: VIHVTKEVKEVATLSCGHNVSVEELAQTRIYWQKDKKMVLTMMSGDINIWPEYKNRTIFDITNNLSIVILALRPSDEGTYECVVLKYEKDAFKREHLAEVTLSVKAD
# B8: E23D/M42V/M43I/I58V/L70R: variant CD80 IgV-Fc, IgV SEQ ID NO:209 (protein)
# chain: B7 chain with E23D, D35E, M42V, M43I, I47M, I58V, L70R
# B9: V20I/A71D: variant CD80 IgV-Fc, IgV SEQ ID NO:215 (protein)
# chain: B7 chain with V20I, D35E, I47M, A71D
# B10: L70Q/A71D: variant CD80 IgV-Fc, IgV SEQ ID NO:220 (protein)
# chain: B7 chain with D35E, I47M, L70Q, A71D
# B11: A12T/E24D/E35D/D46V/I61V/L72P/E95V: variant CD80 IgV-Fc, IgV SEQ ID NO:217 (protein)
# chain: B7 chain with A12T, E24D, D46V, I47M, I61V, L72P, E95V
# B12: T41S/T57I/L70R: variant CD80 IgV-Fc, IgV SEQ ID NO:213 (protein)
# chain: B7 chain with D35E, T41S, I47M, T57I, L70R
# B13: Q27L/E35D/M47I/T57I/L70Q/E88D: variant CD80 IgV-Fc, IgV SEQ ID NO:204 (protein)
# chain: B7 chain with Q27L, T57I, L70Q, E88D
# B14: N55I/T57I/I69F: variant CD80 IgV-Fc, IgV SEQ ID NO:211 (protein)
# chain: B7 chain with D35E, I47M, N55I, T57I, I69F
# B15: H18Y/A71D/L72P/E88V: variant CD80 IgV-Fc, IgV SEQ ID NO:214 (protein)
# chain: B7 chain with H18Y, D35E, I47M, A71D, L72P, E88V
# B16: Q27H/E35G/A71D/L72P/T791: variant CD80 IgV-Fc, IgV SEQ ID NO:196 (protein)
# chain: B7 chain with Q27H, D35G, I47M, A71D, L72P, T79I
# B17: Y31H/E35D/T41S/V68L/K93R/R94W: variant CD80 IgV-Fc, IgV SEQ ID NO:223 (protein)
# chain: B7 chain with Y31H, T41S, I47M, V68L, K93R, R94W
# B18: E35D/T57A/A71D/L85Q: variant CD80 IgV-Fc, IgV SEQ ID NO:206 (protein)
# chain: B7 chain with I47M, T57A, A71D, L85Q
# B19: M47V/I69F/A71D/V831: variant CD80 IgV-Fc, IgV SEQ ID NO:205 (protein)
# chain: B7 chain with D35E, I47V, I69F, A71D, V83I
# B20: E35D/M43I/A71D: variant CD80 IgV-Fc, IgV SEQ ID NO:212 (protein)
# chain: B7 chain with M43I, I47M, A71D
# B21: D46E/A71D: variant CD80 IgV-Fc, IgV SEQ ID NO:222 (protein)
# chain: B7 chain with D35E, D46E, I47M, A71D
# B22: V68M/L70M/A71D/E95K: variant CD80 IgV-Fc, IgV SEQ ID NO:210 (protein)
# chain: B7 chain with D35E, I47M, V68M, L70M, A71D, E95K
# B23: V22L/E35D/M43L/A71G/D76H: variant CD80 IgV-Fc, IgV SEQ ID NO:218 (protein)
# chain: B7 chain with V22L, M43L, I47M, A71G, D76H
# B24: I30T/L70R: variant CD80 IgV-Fc, IgV SEQ ID NO:154 (protein)
# chain: B7 chain with I30T, D35E, I47M, L70R
# System: allogeneic CD4+ T cells
# Test: Mixed Lymphocyte Reaction (MLR), IFN-gamma
# Type: cell-based, human
# Conditions: Table E32; variant ECD-Fc in MLR assay; culture supernatant
# Procedure: Soluble rCD80.Fc bioactivity was tested in a human Mixed Lymphocyte Reaction (MLR). Human primary dendritic cells (DC) were generated by culturing monocytes isolated from PBMC (BenTech Bio, USA) in vitro for 7 days with 500U/ml rIL-4 (R&D Systems, USA) and 250 U/ml rGM-CSF (R&D Systems, USA) in Ex-Vivo 15 media (Lonza, Switzerland). 10,000 matured DC and 100,000 purified allogeneic CD4+ T cells (BenTech Bio, USA) were co-cultured with variant CD80 Fc fusion proteins and controls in 96 well round bottom plates in 200 μl final volume of Ex-Vivo 15 media. On day 5, IFN-gamma secretion in culture supernatants was analyzed using the Human IFN-gamma Duoset ELISA kit (R&D Systems, USA). Optical density was measured by VMax ELISA Microplate Reader (Molecular Devices, USA) and quantitated against titrated rIFN-gamma standard included in the IFN-gamma Duo-set kit (R&D Systems, USA).
row,Molecule,MLR IFN-gamma levels
1,B1,716 pg/mL
2,B2,752 pg/mL
3,B3,741 pg/mL
4,B4,710 pg/mL
5,B5,991 pg/mL
6,B6,741 pg/mL

# System: human pan T cells
# Test: Anti-CD3 coimmobilization assay, IFN-gamma
# Type: cell-based
# Conditions: Table E32; variant ECD-Fc coimmobilized with anti-CD3; culture supernatant
# How it was run: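 Plates coated overnight with 1 nM or 4 nM OKT3 anti-CD3 plus 1–80 nM rCD80.Fc variants, then washed. Purified human pan T cells or BC3 T cell clone (100,000/well) cultured 3 days in Ex-Vivo 15; supernatant IFN-gamma measured by ELISA.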
row,Molecule,Coimmobilization with anti CD3 IFN-gamma
1,B1,93 pg/mL
2,B2,99 pg/mL
3,B3,86 pg/mL
4,B4,195 pg/mL
5,B5,139 pg/mL
6,B6,104 pg/mL

# Target: T1, CD28 (Homo sapiens, UniProt P10747)
# Test: Jurkat/IL2 reporter assay: blockade of CD28 costimulation (plate-bound anti-CD3/CD86-Fc)
# Type: cell-based
# Design: host or cells: Jurkat cells expressing an IL-2-luciferase reporter
# Conditions: Table E5; protein diluted to 40 nM before mixing with cells; 5 hours
# Procedure: The day before the assay, the assay plate was prepared. […] The plate was incubated overnight at 4° C. to allow the antibody and CD86-Fc protein to adhere to the surface of the plate. The next day, the wells of the assay plate were washed twice with 150 μL PBS prior to the assay.
# Jurkat effector cells expressing IL-2-luciferase reporter were counted and resuspended in assay buffer to a concentration of 2×10^6 cells/mL. 60 μL of the Jurkat cell suspension were then added to the wells containing the CD80-Fc fusion molecules or controls. The cells and CD80 proteins were incubated at room temperature for 15 minutes and then 100 μL of the cell/CD80 protein mixture were transferred/well of the prepared anti-CD3/CD86-Fc assay plate.
# The assay plate was briefly spun down (10 seconds at 1200 RPM) and incubated at 37° C. for 5 hours. After the 5 hour incubation, the plate was removed and equilibrated to room temperature for 15 minutes. 100 μL of Bio-Glo (Promega) were added/well of the assay plate, which was then placed on an orbital shaker for 10 minutes. Luminescence was measured with a 1 second per well integration time using a BioTek Cytation 3 luminometer.
row,Average Relative Luminescence Units,Molecule
1,1444 Relative Luminescence Units,B7
2,4460 Relative Luminescence Units,B8
3,2165 Relative Luminescence Units,B9
4,1036 Relative Luminescence Units,B10
5,2408 Relative Luminescence Units,B11
6,3641 Relative Luminescence Units,B12
7,1180 Relative Luminescence Units,B13
8,1915 Relative Luminescence Units,B14
9,1354 Relative Luminescence Units,B15
10,2000 Relative Luminescence Units,B16
11,3678 Relative Luminescence Units,B17
12,3213 Relative Luminescence Units,B18
13,290 Relative Luminescence Units,B19
14,3019 Relative Luminescence Units,B20
15,490 Relative Luminescence Units,B21
16,2067 Relative Luminescence Units,B22
17,2004 Relative Luminescence Units,B23
18,3236 Relative Luminescence Units,B24

# Target: T1, CD28
# Test: Jurkat/IL2 + CHO/OKT3 +/- PD-L1 reporter assay: PD-L1-dependent CD28 costimulation
# Type: cell-based
# Design: host or cells: Jurkat cells expressing an IL-2-luciferase reporter
# Conditions: CHO/OKT3/PD-L1 aAPC; 0.6 nM; luciferase signal
# How it was run: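 Jurkat reporter cells (100,000/well) preincubated 15 min at room temperature with test protein, then cocultured 5 h at 37 °C with CHO aAPCs bearing anti-CD3 scFv (OKT3) with or without PD-L1. Luciferase luminescence (RLU) read after lysis-substrate addition.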
row,"PD-L1-Dependent CD28 Costimulation, +PD-L1, 0.6 nM",Molecule
1,1047,B7

# Same assay, conditions: CHO/OKT3/PD-L1 aAPC; 50 nM; luciferase signal
row,"PD-L1-Dependent CD28 Costimulation, +PD-L1, 50 nM",Molecule
1,3778,B7

# Same assay, conditions: CHO/OKT3 aAPC, no PD-L1; 50 nM; luciferase signal
row,"PD-L1-Dependent CD28 Costimulation, No PD-L1, 50 nM",Molecule
1,894,B7

# Same assay, conditions: CHO/OKT3 aAPC, no PD-L1; […]; luciferase signal
row,"PD-L1-Dependent CD28 Costimulation, No PD-L1, […]",Molecule
1,637,B7
